We go through one substance from paper PMC3393751.

This assay concerns the target cytochrome b558 (human (endogenous in neutrophils)) (UniProt P04839).
Sequence of UniProt P04839 (P04839 whole entry, chain 1 of 2): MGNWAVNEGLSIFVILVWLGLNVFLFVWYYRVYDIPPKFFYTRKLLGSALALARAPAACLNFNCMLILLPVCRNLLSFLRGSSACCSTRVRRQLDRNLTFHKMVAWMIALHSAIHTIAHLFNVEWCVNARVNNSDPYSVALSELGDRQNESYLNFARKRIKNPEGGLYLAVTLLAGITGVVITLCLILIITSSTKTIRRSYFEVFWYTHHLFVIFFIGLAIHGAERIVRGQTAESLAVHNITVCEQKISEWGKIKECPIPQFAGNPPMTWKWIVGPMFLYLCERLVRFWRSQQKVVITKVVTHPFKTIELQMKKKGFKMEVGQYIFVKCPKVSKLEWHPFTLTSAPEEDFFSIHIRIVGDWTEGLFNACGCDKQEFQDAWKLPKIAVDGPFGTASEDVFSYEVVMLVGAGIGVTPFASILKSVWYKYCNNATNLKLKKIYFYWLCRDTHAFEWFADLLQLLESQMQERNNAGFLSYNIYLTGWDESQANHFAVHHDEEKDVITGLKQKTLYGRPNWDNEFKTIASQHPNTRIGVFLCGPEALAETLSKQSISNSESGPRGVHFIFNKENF
Sequence of UniProt P04839 (P13498 whole entry, chain 2 of 2, further chain): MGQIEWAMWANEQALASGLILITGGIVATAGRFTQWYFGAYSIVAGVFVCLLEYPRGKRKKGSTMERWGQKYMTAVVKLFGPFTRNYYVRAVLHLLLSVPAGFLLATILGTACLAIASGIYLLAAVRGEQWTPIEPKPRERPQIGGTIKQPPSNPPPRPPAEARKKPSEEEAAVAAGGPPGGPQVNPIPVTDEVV

Turning to “rS100A9-A8 chimera (full length) (from UniProt P05109 1-93)”, the constitutive NADPH oxidase turnover (without arachidonic acid) of cytochrome b558 washed on the heparin matrix with the calcium loaded chimera instead of cytosol (control without washing 3.7 s^-1) came out at 17 s⁻¹.
